Experimental data reported in publication PMC12582296.

Assays:
[1] = target: adaptor protein 2 (AP-2) complex; assay: ELISA-based peptide binding assay; details: read off a plot
[2] = target: HLA-E (wild type, EGFP at the C-terminus) (human)

| Substance | percentage of internalized HLA-E that reappeared on the cell surface within 1 h (recycling assay, HEK293T, peptide pulsing 50 µM) [2] [%] | further results |
| --- | --- | --- |
| CD1b cytoplasmic tail peptide (CD1) (from UniProt P29016) Y5A |  | response (absorbance 450) ([1]; parent: est. 0.86): 0.64 |
| Mtb44 peptide | 18 |  |
| VL9 peptide | 25 |  |
| HLA-E cytoplasmic tail peptide (E) (from UniProt P13747) K310R; K322Q; W325S |  | response (absorbance 450) ([1]; parent: est. 1.5): 0.83 |
| RL9 peptide | 15 |  |
